According to article PMC11245600, “Therapeutic potential of the secreted Kazal-type serine protease inhibitor SPINK4 in colitis” (Nature Communications, 2024):

Target: T1, Fc-tagged extracellular section of EGFR (rEGFR) (human, UniProt P00533 25-645)
T1 construct: EGFR, extracellular section, human-derived; Bought protein; also called rEGFR (extracellular part); recombinant extracellular domain of EGFR; source: bought: Sino Biological
Assay: pull-down; 200 ng/mL rSPINK4-His and 1000 ng/mL Fc-tagged extracellular EGFR in 1 mL PBS with protease inhibitors, 4 °C overnight; anti-His or anti-EGFR magnetic beads, IgG control; Western blot
Conditions: both partners purified

B1: human-derived recombinant SPINK4 protein, His-tagged (rSPINK4-His) (natural protein, UniProt O60575 27-86, looked up)
chain: GKLPFSRMPICEHMVESPTCSQMSNLVCGTDGLTYTNECQLCLARIKTKQDIQIMKDGKC
notes: Bought recombinant protein
B1: binds.
